Results: publication PMC10926671

Molecular target: H3K27me3 peptide
Assay: ITC

Which Kd does the source give for “MBP-BP1 (maltose-binding protein-tagged bromo-adjacent homology-plant homeodomain domain containing protein 1) (natural protein)” here?
Its Kd is 16.2 µM.
